Measured values taken from the supplement of paper PMC10567573.

B1: CCDC89 (parent)
chain: LNAELEEKMMQEAEKLKAQGEYSR
B2: CCDC6 (parent)
chain: FTPPTSLTRAGMSYYNSPGLHVQH

Variants of: B1
Assay: protein stability index of a GFP-peptide fusion (GPS, HEK-293T) (PSI 1-6); higher = more stable
Settings: c terminus: a fixed tail appended
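Note: lentivirally expressed fusions sorted by FACS into six bins by GFP to DsRed ratio, PSI derived from sequencing read proportions per bin multiplied by bin number.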

Point of comparison: LNAELREKMMQEAEKLKAQGEYSR [E6R], protein stability index 4.36. Against it:
- LNAELEESMMQEAEKLKAQGEYSR [K8S] — lower, 3.82
- LNAELEENMMQEAEKLKAQGEYSR [K8N] — higher, 4.49
- LNAELEEAMMQEAEKLKAQGEYSR [K8A] — higher, 4.9
- LNAELEEVMMQEAEKLKAQGEYSR [K8V] — higher, 4.86
- LNAELEEWMMQEAEKLKAQGEYSR [K8W] — higher, 4.5
- LNAELEEQMMQEAEKLKAQGEYSR [K8Q] — higher, 5.02
- LNAELEEDMMQEAEKLKAQGEYSR [K8D] — higher, 4.78
- LNAELIEKMMQEAEKLKAQGEYSR [E6I] — lower, 4.08
- LNAELPEKMMQEAEKLKAQGEYSR [E6P] — higher, 4.8
- LNAELVEKMMQEAEKLKAQGEYSR [E6V] — lower, 3.04
- LNAELCEKMMQEAEKLKAQGEYSR [E6C] — higher, 4.69
- LNAELGEKMMQEAEKLKAQGEYSR [E6G] — higher, 5.15
- LNAELMEKMMQEAEKLKAQGEYSR [E6M] — higher, 4.42
- LNAELFEKMMQEAEKLKAQGEYSR [E6F] — lower, 3.39
- LNAELKEKMMQEAEKLKAQGEYSR [E6K] — higher, 4.64
- LNAELQEKMMQEAEKLKAQGEYSR [E6Q] — higher, 4.65
- LNAELHEKMMQEAEKLKAQGEYSR [E6H] — higher, 4.79
- LNAELWEKMMQEAEKLKAQGEYSR [E6W] — lower, 3.56
- LNAELSEKMMQEAEKLKAQGEYSR [E6S] — higher, 4.96
- LNAELNEKMMQEAEKLKAQGEYSR [E6N] — higher, 4.71
- LNAELLEKMMQEAEKLKAQGEYSR [E6L] — lower, 2.68
- LNAELTEKMMQEAEKLKAQGEYSR [E6T] — lower, 3.27
- LSAELEEKMMQEAEKLKAQGEYSR [N2S] — higher, 5.11
- LQAELEEKMMQEAEKLKAQGEYSR [N2Q] — higher, 5.63
- LTAELEEKMMQEAEKLKAQGEYSR [N2T] — higher, 5.32
- LRAELEEKMMQEAEKLKAQGEYSR [N2R] — lower, 3.94
- LGAELEEKMMQEAEKLKAQGEYSR [N2G] — higher, 5.14
- LHAELEEKMMQEAEKLKAQGEYSR [N2H] — higher, 5.42
- LAAELEEKMMQEAEKLKAQGEYSR [N2A] — higher, 4.98
- LMAELEEKMMQEAEKLKAQGEYSR [N2M] — higher, 4.99
- LIAELEEKMMQEAEKLKAQGEYSR [N2I] — higher, 4.79
- LWAELEEKMMQEAEKLKAQGEYSR [N2W] — lower, 2.71
- LDAELEEKMMQEAEKLKAQGEYSR [N2D] — lower, 3.11
- LPAELEEKMMQEAEKLKAQGEYSR [N2P] — higher, 4.82
- LFAELEEKMMQEAEKLKAQGEYSR [N2F] — lower, 4.17

Variants of: B2
Assay: as above
Settings: c terminus: a fixed tail appended

Point of comparison: FTPPTSLTRAGMSYYNSPGLHMQH [V22M], protein stability index 1.64. Against it:
- FTPPTSLTRAGMSYYNSPGLHVQI [H24I] — higher, 3.53
- FTPPTSLTRAGMSYYNSPGLHVQM [H24M] — higher, 2.9
- FTPPTSLTRAGMSYYNSPGLHVQR [H24R] — higher, 1.73
- FTPPTSLTRAGMSYYNSPGLHVQS [H24S] — higher, 1.8
- FTPPTSLTRAGMSYYNSPGLHVQW [H24W] — lower, 1.38
- FTPPTSLTRAGMSYYNSPGLHVQK [H24K] — higher, 2.7
- FTPPTSLTRAGMSYYNSPGLHVQG [H24G] — higher, 1.77
- FTPPTSLTRAGMSYYNSPGLHVQN [H24N] — lower, 1.15
- FTPPTSLTRAGMSYYNSPGLHVQE [H24E] — higher, 1.84
- FTPPTSLTRAGMSYYNSPGLHVQP [H24P] — higher, 2.24
- FTPPTSLTRAGMSYYNSPGLHVQL [H24L] — lower, 1.63
- FTPPTSLTRAGMSYYNSPGLHVQQ [H24Q] — higher, 1.86
- FTPPTSLTRAGMSYYNSPGLHVQD [H24D] — higher, 1.82
- FTPPTSLTRAGMSYYNSPGLHVQV [H24V] — higher, 1.67
- FTPPTSLTRAGMSYYNSPGLHVQT [H24T] — higher, 1.85
- FTPPTSLTRAGMSYYNSPGLHVQF [H24F] — higher, 2.77
- FTPPTSLTRAGMSYYNSPGLHVQC [H24C] — higher, 1.66
- FTPPTSLTRAGMSYYNSPGLHVQA [H24A] — lower, 1.56
- FTPPTSLTRAGMSYYNSPGLHVQY [H24Y] — lower, 1.19
- FTPPTSLTRAGMSYYNSPGLVVQH [H21V] — higher, 2.58
- FTPPTSLTRAGMSYYNSPGLYVQH [H21Y] — lower, 1.25
- FTPPTSLTRAGMSYYNSPGLWVQH [H21W] — higher, 2.36
- FTPPTSLTRAGMSYYNSPGLHWQH [V22W] — lower, 1.22
- FTPPTSLTRAGMSYYNSPGLHEQH [V22E] — higher, 2.18
- FTPPTSLTRAGMSYYNSPGLHFQH [V22F] — lower, 1.51
- FTPPTSLTRAGMSYYNSPGLHNQH [V22N] — higher, 1.98
- FTPPTSLTRAGMSYYNSPGLHTQH [V22T] — higher, 1.97
- FTPPTSLTRAGMSYYNSPGLHLQH [V22L] — higher, 1.95
- FTPPTSLTRAGMSYYNSPGLHKQH [V22K] — higher, 2.25
- FTPPTSLTRAGMSYYNSPGLHAQH [V22A] — higher, 1.7
- FTPPTSLTRAGMSYYNSPGLHHQH [V22H] — higher, 1.87
- FTPPTSLTRAGMSYYNSPGLHCQH [V22C] — lower, 1.51
- FTPPTSLTRAGMSYYNSPGLHIQH [V22I] — higher, 2.14
- FTPPTSLTRAGMSYYNSPGLHSQH [V22S] — higher, 1.74
- FTPPTSLTRAGMSYYNSPGLHDQH [V22D] — higher, 1.86
- FTPPTSLTRAGMSYYNSPGLHGQH [V22G] — higher, 2.01
- FTPPTSLTRAGMSYYNSPGLHYQH [V22Y] — higher, 2.32
- FTPPTSLTRAGMSYYNSPGLHRQH [V22R] — higher, 2.01
- FTPPTSLTRAGMSYYNSPGLHQQH [V22Q] — lower, 1.56
- FTPPTSLTRAGMSYYNSPGLHVKH [Q23K] — higher, 2.34
- FTPPTSLTRAGMSYYNSPGLHVRH [Q23R] — higher, 2.08
- FTPPTSLTRAGMSYYNSPGLHVVH [Q23V] — higher, 2.3
- FTPPTSLTRAGMSYYNSPGLHVYH [Q23Y] — higher, 2.06
- FTPPTSLTRAGMSYYNSPGLHVDH [Q23D] — higher, 1.69
- FTPPTSLTRAGMSYYNSPGLHVWH [Q23W] — higher, 3.23
- FTPPTSLTRAGMSYYNSPGLHVTH [Q23T] — higher, 1.73
- FTPPTSLTRAGMSYYNSPGLHVAH [Q23A] — higher, 1.74
- FTPPTSLTRAGMSYYNSPGLHVCH [Q23C] — higher, 1.65
- FTPPTSLTRAGMSYYNSPGLHVPH [Q23P] — higher, 1.79
- FTPPTSLTRAGMSYYNSPGLHVLH [Q23L] — higher, 2
- FTPPTSLTRAGMSYYNSPGLHVFH [Q23F] — higher, 1.92
- FTPPTSLTRAGMSYYNSPGLHVGH [Q23G] — lower, 1.56
- FTPPTSLTRAGMSYYNSPGLHVNH [Q23N] — lower, 1.2
- FTPPTSLTRAGMSYYNSPGLHVHH [Q23H] — higher, 1.88
- FTPPTSLTRAGMSYYNSPGLHVSH [Q23S] — lower, 1.43
- FTPPTSLTRAGMSYYNSPGLHVIH [Q23I] — higher, 2.46
- FTPPTSLTRAGMSYYNSPGLHVMH [Q23M] — lower, 1.31
